The source of these data is the supplement of paper PMC10567573.

Sequences and labels used below:
B1: KLHL14 (parent)
chain: YVIGGRNETGYLSSVECYNLETNE
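Note: lentivirally expressed fusions sorted by FACS into six bins by GFP to DsRed ratio, PSI derived from sequencing read proportions per bin multiplied by bin number.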

This data set covers variants of B1. Description: protein stability index of a GFP-peptide fusion (GPS, HEK-293T) (PSI 1-6); higher = more stable. The note with it: c terminus: a fixed tail appended.
Consider RVIGGRNETGYLSSVECYNLETNE [Y1R], for which the protein stability index turned out to be 4.39.
Turning to YVIGGRNETGYLSSKECYNLETNE [V15K], the protein stability index is 2.12.
As to YVIGGRNETGYLSSFECYNLETNE [V15F], the protein stability index was 1.52.
For YVIGGRNETGYLSSDECYNLETNE [V15D], the protein stability index was found to be 2.95.
With YVIGGRNETGYLSSNECYNLETNE [V15N], the protein stability index worked out at 2.46.
As for YVIGGRNETGYLSSMECYNLETNE [V15M], the protein stability index came to 1.84.
The value for YVIGGRNETGYLSSWECYNLETNE [V15W] was 2.21; that for YVIGGRNETGYLSSIECYNLETNE [V15I] was 1.83; that for YVIGGRNETGYLSSGECYNLETNE [V15G] was 2.05.
On to YVIGGRNETGYLSRVECYNLETNE [S14R], for which the protein stability index worked out at 1.58.
Take YVIGGRNETGYLSDVECYNLETNE [S14D]: the protein stability index was found to be 2.38.
As for YVIGGRNETGYLSAVECYNLETNE [S14A], the protein stability index was 1.7.
Regarding YVIGGRNETGYLSKVECYNLETNE [S14K], the protein stability index was determined as 1.35.
The value for YVIGGRNETGYLSMVECYNLETNE [S14M] was 2.3; that for YVIGGRNETGYLSTVECYNLETNE [S14T] was 1.99.
For the variant YVIGGRLETGYLSSVECYNLETNE [N7L], the protein stability index stood at 2.36.
Take YVIGGRFETGYLSSVECYNLETNE [N7F]: the protein stability index was found to be 2.29.
As for YVIGGRTETGYLSSVECYNLETNE [N7T], the protein stability index was 1.85.
As to YVIGGRKETGYLSSVECYNLETNE [N7K], the protein stability index was 2.27.
The value for YVIGGRHETGYLSSVECYNLETNE [N7H] was 2.45; that for YVIGGREETGYLSSVECYNLETNE [N7E] was 2.59.
In the case of YVIGGRNVTGYLSSVECYNLETNE [E8V] it was 1.78; in that of YVIGGRNWTGYLSSVECYNLETNE [E8W], 2.08.
Turning to YVIGGRNQTGYLSSVECYNLETNE [E8Q], the protein stability index was determined as 1.88.
Regarding YVIGGRNITGYLSSVECYNLETNE [E8I], the protein stability index amounted to 1.81.
For YVIGGRNFTGYLSSVECYNLETNE [E8F], the protein stability index amounted to 1.99.
Consider YVIGGRNSTGYLSSVECYNLETNE [E8S], for which the protein stability index came out at 2.09.
In the case of YVIGGRNLTGYLSSVECYNLETNE [E8L] it was 1.32.
Turning to YVIGGRNMTGYLSSVECYNLETNE [E8M], the protein stability index is 2.21.
For YVIGGRNETPYLSSVECYNLETNE [G10P], the protein stability index was found to be 1.52.
With YVIGGRNETRYLSSVECYNLETNE [G10R], the protein stability index was 2.55.
For YVIGGRNETGYLSSVECYNLETDE [N23D], the protein stability index is 2.75.
Regarding YVIGGRNETGYLSSVECYNLETGE [N23G], the protein stability index came to 1.74.
In the case of YVIGGRNETGYLSSVECYNLETRE [N23R] it was 1.92.
For YVIGGRNETGYLSSVECYNLETIE [N23I], the protein stability index was 1.56.
As for YVIGGRNETGYLSSVECYNLETPE [N23P], the protein stability index worked out at 1.75.
Regarding YVIGGRNETGYLSSVECYNLETQE [N23Q], the protein stability index amounted to 3.14.
With YVIGGRNETGYLSSVECYNLETHE [N23H], the protein stability index turned out to be 1.86.
With YVIGGRNETGYLSSVECYNLETSE [N23S], the protein stability index turned out to be 1.86.
As for YVIGGRNETGYLSSVECYNLETVE [N23V], the protein stability index was 2.17.
In the case of YVIGGRNETGYLSSVECYNLETLE [N23L] it was 1.66; in that of YVIGGRNETGYLSSVECYNLETFE [N23F], 1.88.
Turning to YVIGGRNETGYLSSVECYNLETNS [E24S], the protein stability index amounted to 2.07.
YVIGGRNETGYLSSVECYNLETNY [E24Y]: the protein stability index amounted to 2.08.
Take YVIGGRNETGYLSSVECYNLETNP [E24P]: the protein stability index came to 1.72.
Consider YVIGGRNETGYLSSVECYNLETNK [E24K], for which the protein stability index was determined as 1.75.
For YVIGGRNETGYLSSVECYNLETNA [E24A], the protein stability index is 1.64.
With YVIGGRNETGYLSSVECYNLETNQ [E24Q], the protein stability index was 1.49.
In the case of YVIGGRNETGYLSSVECYNLETNC [E24C], the protein stability index was 1.96.
The value for YVIGGRNETGYLSSVECYNLETND [E24D] was 2.14.
As to YVIGGRNETGYLSSVECYNLQTNE [E21Q], the protein stability index is 2.39.
As to YVIGGRNETGYLSSVECYNLPTNE [E21P], the protein stability index turned out to be 1.93.
As to YVIGGRNETGYLSSVECYNLYTNE [E21Y], the protein stability index stood at 2.17.
As to YVIGGRNETGYLSSVECYNLDTNE [E21D], the protein stability index turned out to be 1.8.
In the case of YVIGGRNETGYLSSVECYNLITNE [E21I], the protein stability index was 2.05.
Regarding YVIGGRNETGYLSSVECYNLVTNE [E21V], the protein stability index came out at 1.54.
In the case of YVIGGRNETGYLSSVECYNLTTNE [E21T], the protein stability index was determined as 1.68.
YVIGGRNETGYLSSVECYNLLTNE [E21L]: the protein stability index came out at 1.67.
As for YVINGRNETGYLSSVECYNLETNE [G4N], the protein stability index was found to be 1.89.
For YVIAGRNETGYLSSVECYNLETNE [G4A], the protein stability index came out at 1.77.
In the case of YVIYGRNETGYLSSVECYNLETNE [G4Y] it was 2.42.
Regarding YVIMGRNETGYLSSVECYNLETNE [G4M], the protein stability index stood at 2.31.
For the variant YVIWGRNETGYLSSVECYNLETNE [G4W], the protein stability index was 2.32.
The value for YVICGRNETGYLSSVECYNLETNE [G4C] was 1.75; that for YVIGGTNETGYLSSVECYNLETNE [R6T] was 2.52.
On to YVIGGYNETGYLSSVECYNLETNE [R6Y], for which the protein stability index amounted to 1.69.
For YVIGGLNETGYLSSVECYNLETNE [R6L], the protein stability index came to 2.09.
For the variant YVIGGGNETGYLSSVECYNLETNE [R6G], the protein stability index was determined as 1.92.
As to YVIGGWNETGYLSSVECYNLETNE [R6W], the protein stability index amounted to 1.96.
For the variant YVIGGRNETGYLSSVEPYNLETNE [C17P], the protein stability index came to 2.23.
In the case of YVIGGRNETGYLSSVENYNLETNE [C17N] it was 2.44; in that of YVIGGRNETGYLSSVEGYNLETNE [C17G], 2.8; in that of YVIGGRNETGYLSSVELYNLETNE [C17L], 2.56.
Regarding YVIGGRNETGYLSSVEQYNLETNE [C17Q], the protein stability index is 2.43.
Take YVIGGRNETGYLSSVEYYNLETNE [C17Y]: the protein stability index turned out to be 1.78.
In the case of YVIGGRNETGYLSSVEIYNLETNE [C17I] it was 2.5; in that of YVIGGRNETGYESSVECYNLETNE [L12E], 3.23; in that of YVIGGRNETGYTSSVECYNLETNE [L12T], 2.57.
Take YVIGGRNETGYSSSVECYNLETNE [L12S]: the protein stability index was found to be 2.59.
As for YVIGGRNETGYKSSVECYNLETNE [L12K], the protein stability index turned out to be 2.16.
For YVIGGRNETGYMSSVECYNLETNE [L12M], the protein stability index turned out to be 2.33.
Turning to YVIGGRNETGYNSSVECYNLETNE [L12N], the protein stability index came out at 2.78.
The value for YVIGGRNETGYGSSVECYNLETNE [L12G] was 2.99.
Consider YVIGGRNETGYWSSVECYNLETNE [L12W], for which the protein stability index was 2.47.
In the case of YVIGGRNETGYPSSVECYNLETNE [L12P], the protein stability index worked out at 2.64.
Consider YVIGGRNETGNLSSVECYNLETNE [Y11N], for which the protein stability index is 2.83.
In the case of YVIGGRNETGILSSVECYNLETNE [Y11I] it was 2.1.
For YVIGGRNETGALSSVECYNLETNE [Y11A], the protein stability index turned out to be 2.71.
Regarding YVIGGRNETGFLSSVECYNLETNE [Y11F], the protein stability index worked out at 1.83.
With YVIGGRNETGELSSVECYNLETNE [Y11E], the protein stability index was 3.9.
The value for YVIGGRNETGPLSSVECYNLETNE [Y11P] was 3.71.
On to YVIGGRNETGCLSSVECYNLETNE [Y11C], for which the protein stability index stood at 2.45.
The value for YVIGGRNETGSLSSVECYNLETNE [Y11S] was 2.42; that for YVIGGRNETGVLSSVECYNLETNE [Y11V] was 2.52.
